Test results: the supplement of paper PMC9112550, “Optimization of the antimicrobial peptide Bac7 by deep mutational scanning” (BMC Biology, 2022)

Tested on: Escherichia coli TOP10
Assay: shrunken log2 fold change of peptide-encoding DNA abundance (4.5 h post-induction vs induction); higher = less antimicrobial activity (less host growth inhibition)
Details: time post-induction: 4.5 h; library: site-saturation at positions 5, 18, 19, 20
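Further: peptides expressed intracellularly from a pBAD plasmid library in pooled LB shake-flask culture, induced with 0.3% L-arabinose, DNA abundance read by NGS, three biological replicates, DESeq2 with apeglm shrinkage.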

Sequence | shrunken log2 fold change
RRIRKRPPRLPRPRPRPYFPPRP | -0.348
RRIRKRPPRLPRPRPRPYGNPRP | -0.135
RRIRKRPPRLPRPRPRPYHPPRP | 0.0155
RRIRKRPPRLPRPRPRPYIAPRP | -0.293
RRIRKRPPRLPRPRPRPYKCPRP | -0.168
RRIRKRPPRLPRPRPRPYLNPRP | -0.362
RRIRKRPPRLPRPRPRPYMQPRP | -0.0263
RRIRKRPPRLPRPRPRPYMWPRP | -0.0774
RRIRKRPPRLPRPRPRPYPEPRP | -0.0874
RRIRKRPPRLPRPRPRPYQFPRP | -0.17
RRIRKRPPRLPRPRPRPYSPPRP | -0.23
RRIRKRPPRLPRPRPRPYSTPRP | -0.0551
RRIRKRPPRLPRPRPRPYTIPRP | -0.0634
RRIRKRPPRLPRPRPRPYVNPRP | -0.526
RRIRKRPPRLPRPRPRPYWDPRP | -0.219
RRIRKRPPRLPRPRPRPYWLPRP | -0.229
RRIRKRPPRLPRPRPRPYYMPRP | -0.405
RRIRKRPPRLPRPRPRPYYTPRP | -0.34
RRIRLRPPRLPRPRPRPADPPRP | 0.0111
RRIRLRPPRLPRPRPRPADWPRP | 0.196
RRIRLRPPRLPRPRPRPAFDPRP | -0.0259
RRIRLRPPRLPRPRPRPAGQPRP | -0.0451
RRIRLRPPRLPRPRPRPAHCPRP | 0.0914
RRIRLRPPRLPRPRPRPALNPRP | -0.0159
RRIRLRPPRLPRPRPRPAMFPRP | -0.0833

Sequence | shrunken log2 fold change
RRIRLRPPRLPRPRPRPANNPRP | -0.116
RRIRLRPPRLPRPRPRPANWPRP | 0.0804
RRIRLRPPRLPRPRPRPAPSPRP | 0.163
RRIRLRPPRLPRPRPRPAQAPRP | -0.0635
RRIRLRPPRLPRPRPRPAQIPRP | 0.214
RRIRLRPPRLPRPRPRPAQNPRP | 0.57
RRIRLRPPRLPRPRPRPARPPRP | 0.449
RRIRLRPPRLPRPRPRPASKPRP | -0.116
RRIRLRPPRLPRPRPRPATMPRP | -0.366
RRIRLRPPRLPRPRPRPATVPRP | -0.138
RRIRLRPPRLPRPRPRPAVQPRP | -0.249
RRIRLRPPRLPRPRPRPAWGPRP | 0.444
RRIRLRPPRLPRPRPRPAYFPRP | -0.364
RRIRLRPPRLPRPRPRPCASPRP | 0.259
RRIRLRPPRLPRPRPRPCCQPRP | -0.194
RRIRLRPPRLPRPRPRPCDSPRP | -0.165
RRIRLRPPRLPRPRPRPCEAPRP | 0.125
RRIRLRPPRLPRPRPRPCEGPRP | -0.199
RRIRLRPPRLPRPRPRPCFCPRP | -0.279
RRIRLRPPRLPRPRPRPCFHPRP | -0.49
RRIRLRPPRLPRPRPRPCGMPRP | -0.0649
RRIRLRPPRLPRPRPRPCGSPRP | -0.105
RRIRLRPPRLPRPRPRPCHMPRP | -0.0107
RRIRLRPPRLPRPRPRPCHTPRP | -0.173
RRIRLRPPRLPRPRPRPCIMPRP | -0.0711

Sequence | shrunken log2 fold change
RRIRLRPPRLPRPRPRPCINPRP | -0.209
RRIRLRPPRLPRPRPRPCIRPRP | -0.265
RRIRLRPPRLPRPRPRPCKNPRP | -0.0458
RRIRLRPPRLPRPRPRPCLLPRP | -0.421
RRIRLRPPRLPRPRPRPCLSPRP | 0.00058
RRIRLRPPRLPRPRPRPCLWPRP | -0.000705
RRIRLRPPRLPRPRPRPCMCPRP | -0.967
RRIRLRPPRLPRPRPRPCPAPRP | -0.00808
RRIRLRPPRLPRPRPRPCPGPRP | -0.219
RRIRLRPPRLPRPRPRPCSAPRP | -0.372
RRIRLRPPRLPRPRPRPCSSPRP | -0.157
RRIRLRPPRLPRPRPRPCVSPRP | -0.108
RRIRLRPPRLPRPRPRPCYKPRP | -0.133
RRIRLRPPRLPRPRPRPCYQPRP | -0.476
RRIRLRPPRLPRPRPRPDAVPRP | -0.199
RRIRLRPPRLPRPRPRPDAWPRP | 0.457
RRIRLRPPRLPRPRPRPDCLPRP | -0.0212
RRIRLRPPRLPRPRPRPDCPPRP | 0.0832
RRIRLRPPRLPRPRPRPDDNPRP | -0.138
RRIRLRPPRLPRPRPRPDEAPRP | 0.189
RRIRLRPPRLPRPRPRPDFFPRP | 0.0131
RRIRLRPPRLPRPRPRPDGFPRP | 0.052
RRIRLRPPRLPRPRPRPDHQPRP | -0.118
RRIRLRPPRLPRPRPRPDIPPRP | -0.0741
RRIRLRPPRLPRPRPRPDKGPRP | -0.162
